Columns and labels:
[1] = tested on: scFv specific for CTLA-4; experiment: Western blot of recombinant CTLA-4 detected with scFv specific for CTLA-4; type: binding; conditions: scFv 1 μg/ml; FIG. 14C
Procedure: Recombinant CTLA-4 protein was analyzed and detected using western blotting. Briefly, 50 μl of the purified CTLA-4 protein was electrophoresed on the 12% SDS-PAGE gel (lane 2) and electroblotted over to a PDVF membrane. The protein (CTLA-4)-IgG1Fc-(scFv α HLA-A1) was used as a positive control (lane 1). After blocking with 5% BSA in TBST at room temperature for 1 hour, the diluted scFv specific for CTLA-4 (1 μg/ml) was added and incubated with the membrane overnight at 4° C. with gentle shaking. The membrane was rinsed and washed 3 times with TBST. The diluted HRP-conjugated protein L (1:5000) was added and incubated with the membrane at room temperature for 1 hour, and the rinse and wash cycle was repeated with TBST for 3 times. The membrane was then incubated with HRP substrate solution for 20 minutes before being exposed to the photographic film.

[2] = tested on: mTOR/p70S6K signaling pathway; experiment: Western blot analysis of mTOR/p70S6K signaling pathway in Jurkat T cells; type: cell-based, human; conditions: 100 nM compound with 10 ng/ml IL2, 24 hours, without changes in total p70S6K, FIG. 20A
Procedure: To examine the biological activities of these compounds, western blot analysis of mTOR/p70S6K signaling pathway and T-cell proliferation assay were performed with human Jurkat T cells. T-cell viability and proliferation were assessed using alamarBlue® cell viability reagent (Invitrogen).
For the western blot analysis of mTOR/p70S6K signaling pathway, briefly, Jurkat T cell were seeded into 6-cm cell culture dish in RPM11640 medium containing 10% fetal bovine serum.
Insoluble material was collected by centrifugation at 14,000×g for 20 minutes at 4° C. The cell lysate samples were separated on 10% SDS-PAGE gels and transferred to a PVDF membrane (Millipore). The membrane blots were blocked in PBS containing 5% BSA for 1 hour at room temperature, and incubated with primary antibodies, anti-phospho-p70S6K antibody (Cell Signaling Technology, Danvers, USA) and anti-p70S6K antibody (Cell Signaling Technology), overnight at 4° C. […] Then the membranes were washed three times with TBST, and immunoreacted bands were detected with ECL™ western blotting detection reagents (Millipore) and exposed on Fujifilm (Tokyo, Japan). Relative quantification of ECL signals on X-ray films were analyzed by using Image J (NIH, Bethesda, Md., USA).

[3] = biological target: T1, PD1-IgG1.Fc (Homo sapiens, UniProt Q15116); experiment: ELISA of coated recombinant PD-L1 binding PD1-IgG1.Fc; conditions: PD-L1 coated at 50 μg/ml, PD1-IgG1.Fc at 50 μg/ml; FIG. 14D
T1 construct: made in house; host or cells: Expi293F
Procedure: Binding activity of recombinant PD-L1 protein was assayed with ELISA using a 96-well plate coated with recombinant PD-L1 protein in 50 μg/ml concentration, 100 μl per well. After the excess PD-L1 was washed off and the solid phase blocked, 100 μl per well of PD1-IgG1.Fc at 50 μg/ml was added. The bound PD1-IgG1.Fc was determined by HRP-conjugated goat anti-human IgG.Fc. 50 μl of TMB substrate was added for color development. The reaction was stopped by 50 μl of 1M HCl. Absorbance at 450 nm was measured with a plate reader. Each bar represents the mean OD450 value of duplicate samples.

[4] = biological target: T2, human HLA-A1 (Homo sapiens, UniProt P04439); experiment: ELISA of purified scFv of mAb specific for human HLA-A1; type: binding; conditions: scFv specific for TNF-α as negative control; FIG. 15C
T2 construct: made in house; host or cells: Expi293F
Procedure: The expression of the constructed gene in Expi293F cells was performed as in preceding Examples. Culture supernatants were harvested and scFv proteins in the media were purified using Protein L affinity chromatography. FIGS. 15A, 15B and 15C show 12% SDS-PAGE, mass spectrometric and ELISA analyses of purified scFv of mAb specific for human HLA-A1. […] The scFv specific for TNF-α was used as a negative control, which was prepared as described in PCT patent application publication No. WO/2016112870.

[5] = biological target: T2, human HLA-A1; experiment: ELISA of tetrazine-conjugated scFv specific for human HLA-A1; type: binding; conditions: unmodified scFv as positive control; FIG. 17B
Text: The purity of tetrazine-conjugated scFv specific for human HLA-A1 was identified through Coomassie blue staining of 12% SDS-PAGE. FIGS. 17A and 17B show, respectively, the mass spectrometric and ELISA analysis of tetrazine-conjugated scFv specific for human HLA-A1, in which unmodified scFv specific for human HLA-A1 was used as a positive control.

[6] = biological target: T3, human HLA-A2 (Homo sapiens, UniProt P04439); experiment: Single colony ELISA of phage-displayed scFvs specific for human HLA-A2; type: binding; conditions: secreted scFv in supernatant; HLA-A2 0.5 μg per well; FIG. 16B
T3 construct: made in house; host or cells: Expi293F
Procedure: E. coli strain ER2738 infected with single-clonal phages each harboring a selected scFv gene in its phagemid was grown in the mid-log phase in 2YT broth (16 g/l tryptone, 10 g/l yeast extract, 5 g/l NaCl, pH 7.0) with 100 μg/ml ampicillin in deep well at 37° C. with shaking. After the broth reached an OD600 of 1.0, IPTG was added to a final concentration of 1 μg/ml. The plates were incubated at 37° C. overnight under rigorously shaking. Thereafter, the plates were centrifuged at 4,000 g for 15 minutes at 4° C.
For soluble scFv binding test, ELISA was carried out. Briefly, 96-well Maxisorp 96-well plate (Nunc) was coated with human HLA-A2 (0.5 μg/100 μl PBS per well) or two negative control antigens, human heat shock protein 70 (Hsp 70) and RSV-IgG1.Fc fusion protein (prepared by our laboratory), for 18 hours with shaking at 4° C. After being treated with 300 μl of blocking buffer for 1 hour, 100 μl of secreted scFv in the supernatant was mixed with 100 μl of blocking buffer and then added to the coated plate for another 1 hour. Goat anti-E-tag antibody (conjugated with HRP, 1:4000, Cat. No. AB19400, Abcam) was added to the plate for 1 hour. TMB substrate (50 μl per well) was added to the wells and the absorbance at 450 nm was measured after reactions were stopped by adding 1N HCl (50 μl per well).

T1 sequence (Q15116 with tags, fused parts or gaps): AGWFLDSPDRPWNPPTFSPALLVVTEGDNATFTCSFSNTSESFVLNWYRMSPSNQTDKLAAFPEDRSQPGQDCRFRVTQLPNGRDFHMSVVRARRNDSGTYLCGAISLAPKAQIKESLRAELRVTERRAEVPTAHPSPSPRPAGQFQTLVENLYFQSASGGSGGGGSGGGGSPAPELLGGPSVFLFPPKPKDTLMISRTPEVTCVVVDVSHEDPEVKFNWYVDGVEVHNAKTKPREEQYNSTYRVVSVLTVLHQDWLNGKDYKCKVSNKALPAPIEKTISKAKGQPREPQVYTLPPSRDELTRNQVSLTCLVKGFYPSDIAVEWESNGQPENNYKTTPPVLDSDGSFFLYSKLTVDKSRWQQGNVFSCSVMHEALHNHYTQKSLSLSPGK

## recombinant human CTLA-4: recombinant human CTLA-4, SEQ ID NO: 30, with GGGGSGGGGS linker and terminal cysteine at the C-terminus
[1]
  binding by the scFv specific for CTLA-4 (western blot): specifically bound

## COC1CC2CCC(C)C(O)(O2)C(=O)C(=O)N2CCCCC2C(=O)OC(C(C)CC2CCC(OC(=O)CN)C(OC)C2)CC(=O)C(C)C=C(C)C(O)C(OC)C(=O)C(C)CC(C)C=CC=CC=C1C (stereo not shown) [sirolimus-Gly]
[2]
  phosphorylated level of p70S6K: decreased

## recombinant human PD-L1: recombinant human PD-L1, SEQ ID NO: 31, with GGGGSGGGGS linker and terminal cysteine at the C-terminus
[3]
  binding to recombinant PD1-IgG1.Fc (ELISA): specifically bound

## COC1CC2CCC(C)C(O)(O2)C(=O)C(=O)N2CCCCC2C(=O)OC(C(C)CC2CCC(OC(=O)CNC(=O)CN)C(OC)C2)CC(=O)C(C)C=C(C)C(O)C(OC)C(=O)C(C)CC(C)C=CC=CC=C1C (stereo not shown) [sirolimus-diGly]
[2]
  phosphorylated level of p70S6K: decreased

B1: scFv of mAb specific for human HLA-A1: scFv with VL and VH from monoclonal antibody 4-35-7, SEQ ID NO: 32 (protein)
scFv: DIQMTQSPSTLSASVGDRVTITCRASQSISNWLAWYQQKPGKAPNLLIYKASSLESGVPSRFSGSGSGTEFTLTISSLQPDDFATYYCQQYHDYSVTFGAGTKVEIKRGGGGSGGGGSGGGGSEVQLLESGGGLVQPGGSQRLSCVASGVPFSNYAMNWVRQAPGKGLEWVSSISGGGDRTFYADSVKGRFTISRDNSKNTLYLQMNSLGAGDTAVYYCAKTYYDFWSGYSRHLNSWGQGSLVTVSSGGGGSGGGGSC
modifications: anti-HLA-A1 4-35-7 scFv
[4]
  binding to human HLA-A1 (ELISA): bound specifically

B2: tetrazine-conjugated scFv specific for human HLA-A1: scFv specific for human HLA-A1 (SEQ ID NO: 32) conjugated at C-terminal cysteine with Mal-PEG4-tetrazine (conjugate)
scFv: B1 scFv
modifications: Mal-PEG4-tetrazine at C-terminal cysteine; anti-HLA-A1 4-35-7 scFv
[5]
  binding to recombinant HLA-A1 (ELISA): bound to recombinant HLA-A1

B3: 3E10: phage-displayed scFv clone that binds to human HLA-A2, SEQ ID NO: 34 (protein)
scFv: DIQMTQSPSSLSASVGDRVTITCRASQDVFFFVAWYQQKPGKAPKLLIYGPPGLYSGVPSRFSGSGSGTDFTLTISSLQPEDFATYYCQQYFSFPITFGQGTKVEIKRGGGGSIEGRSGGGGSEVQLVESGGGLVQPGGSLRLSCAASGFTISNGGIHWVRQAPGKGLEWVASIWPSGGYTSYADSVKGRFTISADTSKNTAYLQMNSLRAEDTAVYYCARFGVNYHGIMDYWGQGTLVTVSS
modifications: phage-displayed scFv specific for HLA-A2, 3E10
[6]
  OD450 of binding to human HLA-A2: 1.3

From patent publication US10293018B2, “Fusion protein for treating rejection reaction in transplantation” (Immunwork Inc., priority 2015, dated 2019)
